Results taken from the DeepSol protein solubility set.

Assay: soluble on expression in E. coli; label from the status in PepcDB or PDB records
With “MAEITFKGGPVTLVGQEVKVGDQAPDFTVLTNSLEEKSLADMKGKVTIISVIPSIDTGVCDAQTRRFNEEAAKLGDVNVYTISADLPFAQARWCGANGIDKVETLSDHRDMSFGEAFGVYIKELRLLARSVFVLDENGKVVYAEYVSEATNHPNYEKPIEAAKALVK” the “soluble on expression in E. coli” value was “soluble”. For “MAEKIKINNNVFIYPMPVTLLGANVKGKANLMALGWVSRVNANPPMLGVGVNKSHYTPEGIAENGSFSVNFPYSGMVKKTDYCGLVSGEKVDKSGLFEVFYGELKTAPMIKECTLNLECRVVETLEFPTNYFFVGEIIAAYSEEQYLIQGKPDIKKMDPLLLTMPDNSYWTVGDYAGAALKTGKSLMEKRHHHHHH”, the “soluble on expression in E. coli” value was “soluble”. With “MAEKKLEENPYDLDAWSILIREAQNQPIDKARKTYERLVAQFPSSGRFWKLYIEAEIKAKNYDKVEKLFQRCLMKVLHIDLWKCYLSYVRETKGKLPSYKEKMAQAYDFALDKIGMEIMSYQIWVDYINFLKGVEAVGSYAENQRITAVRRVYQRGCVNPMINIEQLWRDYNKYEEGINIHLAKKMIEDRSRDYMNARRVAKEYETVMKGLDRNAPSVPPQNTPQEAQQVDMWKKYIQWEKSNPLRTEDQTLITKRVMFAYEQCLLVLGHHPDIWYEAAQYLEQSSKLLAEKGDMNNAKLFSDEAANIYERAISTLLKKNMLLYFAYADYEESRMKYEKVHSIYNRLLAIEDIDPTLVYIQYMKFARRAEGIKSGRMIFKKAREDARTRHHVYVTAALMEYYCSKDKSVAFKIFELGLKKYGDIPEYVLAYIDYLSHLNEDNNTRVLFERVLTSGSLPPEKSGEIWARFLAFESNIGDLASILKVEKRRFTAFREEYEGKETALLVDRYKFMDLYPCSASELKALGYKDV” the “soluble on expression in E. coli” value was “soluble”. With “MAELKLEHIKKTYDNNNTVVKDFNLHITDKEFIVFVGPSGCGKSTTLRMVAGLESITSGDFYIDGERMNDVEPKNRDIAMVFQNYALYPHMTVFENMAFGLKLRKVNKKEIEQKVNEAAEILGLTEYLGRKPKALSGGQRQRVALGRAIVRDAKVFLMDEPLSNLDAKLRVQMRTEILKLHKRLNTTTIYVTHDQTEALTMASRIVVLKDGDIMQVGTPREIYDAPNCIFVAQFIGSPAMNMLNATVEMDGLKVGTHHFKLHNKKFEKLKAAGYLDKEIILGIRAEDIHEEPIFIQTSPETQFESEVVVSELLGSEIMVHSTFQGMELISKLDSRTQVMANDKITLAFDMNKCHFFDEKTGNRIV” the “soluble on expression in E. coli” value was “not soluble”. In the case of “MAELPKTLEEAITQSREAVKSALADGVTRIQVDFLFPELKFMPVAEQFVPLFAEYESRVKVFFADAGAAALARRDWQNVPFKVEDIGTGRAASLQTKIQPEDEIFLFIAPTPVEVPQLEKMCEIIDTRPIVLLNPRLEDSGVVGIGYAARETRRRFISTIESCYYLRPVDDESALFRCYPGQWEVWLESNNEYEKIAELPKRPSGDEIDMILMKGQPAKPSEGTPAKKP”, the “soluble on expression in E. coli” value was “soluble”. With “MAENYQQAAKDIIQLIGMDNIISVTHCQTRLRFILKDHEQVDGKQLEKIDLVKGVFYNGGQYQVILGTGIVTKVYDEIEKLGINVVSKAEQTAI” the “soluble on expression in E. coli” value was “not soluble”. With “MAEPKKLANGKWQLRFKYKDSITNEWKNKMITRSTKKACRDAETEFKSKIMRGENTEAIKLLDFYDIWVDTFKKNKVSAGRMQKIALTRKNLHDFFGDKQLLKGVTKVKYQQWINWLAKPGNINEKGLAVETVSNRHNIVKSMFLEALDMQYIHSNPTRNIKLTGQVPEKKSNKTISIDDLTKFKEALLSRENTTSKYFILVQLYTGARYQEVAALTWDSIDESNEVIKIKNAYKYDAGQYRIGPTKSEAGVRNIDVPSSLFYYLKKYEMEQKKKILRGDLRNPQNFAFVSKKNSWPISNSSVNKYIKETCELANIERISSHSFRHARSDLLILAEADPIYIKTQLGHKEIIQSYEYASATEANRKKNKEKYENKYKDIL” the “soluble on expression in E. coli” value was “not soluble”. With “MAFGVSHPVALDLEATSTDPSEAEVLEVAAVDGEGRVFHRYLATQRPLPPDHEVFQLTGIPYEEYEAKKVAPKEALEELLAFLGGRPLLGHNLLRYDLPLLQRHLEEAGLPRWQGEALDTLRLAHLLFPTPPGGLEGYRLGDLYAFLLGRPLEGAHRALNDAQATLAVFHRLLDRGRRALAQHPGLVRAWRELGLPEGHLFPEDEGLIKDLLAREADVEAFFVEKEGRPFPAPTDLGPDLLPKPRPAQRIKEFVQVAHGVAGQGLVGRERPLHEVLERGLRLAVGEAEEGAVEKEG” the “soluble on expression in E. coli” value was “soluble”. In the case of “MAFHWQSKVNVQHVGVDDMVLLPKLTEQSIVENLKKRLQANSIFTYIGPVLISVNPFKQMPYFTEKEMLLYQGAAQYENAPHIYALADNMYRNMLIDNESQCVIISGESGAGKTVNAKFIMNYISRISGGGQKVQHIKDVILQSNPLLEAFGNSATVRNWNSSRFGKYVEIVFSRGGEPIGGKLSNFLLEKSRVVHQNEGDRNFHVFYQLCAGADKNLRSTFGIGELQYYNYLNMSGVFKADDTDDGKEFESTLHAMKVVGVNDQDQLEVLRIVATVLHIGNITFTEENNFAAVSGKDYLEYPAFLLGLTSADIEAKLTGRKMESKWGTQKEEIDMKLNVEQASYTRDAWVKAIYARLFDYLVKKVNDAMNITSQSTSDNFSVGILDIYGFEIFNNNGFEQFCINFVNEKLQQIFIELTLKAEQEEYVREGIKWTEIDYFDNKIVCDLIETKRPPGIMSLLDDTCAQNHGQREGVDRQLLTTLSKSFAGHPHFGPGSDSFVIKHYAGDVTYNVDGFCDRNRDVLYPDLILLMQKSSRPFIQALFPENVAASAGKRPTTFSTKIRTQANTLVESLMKCSPHYVRCIKPNETKRPNDWEESRVKHQVEYLGLRENIRVRRAGFAYRRAFDKFAQRYAIVSPQTWPCFQGDQQRACEIICDSVHMEKNQYQMGKTKIFVKNPESLFLLEETRERKFDGYARVIQKAWRQFSARKQHIKQKEQAADLMYGKKERRRYSLNRNFVGDYIGLEHHPTLQSLVGKRQRVLFACTANKYDRKFRVTKLDLLLTVNHLTLIGKEKVKNGPEKGKIVEVIKRQFDLPQIKSIGLSPYQDDFVILYLGNDDYSSLLETPFKTEFCTALSKAYKERTNGTLHLDFRSSHVVSYKKMKFDFSDGKRTVQFGNDGTSSAEKTLKPNGKVLNVSIGTGLPNTTRPSTERPQGGYTPRRDQLRTSTRRTKQNNQSYGQNGQSQAMRAPVPAHGMNNNYNQTPAPVSTNHQYSQEPARIPVMGNVINQLNNMNLSGNGNSPAGRGPPPARGPKPPPPAKPKLNPVVIAVYPYEAQDVDELSFEAGAEIELMNKDASGWWQGKVNNRVGLFPGNYVKE”, the “soluble on expression in E. coli” value was “not soluble”. For “MAFKFKTFAAVGALIGSLALAGCGQDEKDPNHIKVGVIVGAEQQVAEVAQKVAKEKYGLDVELVTFNDYVLPNEALSKGDIDANAFQHKPYLDQQIKDRGYKLVSVGKTFVYPIAGYSKKIKSLDELKDGSQVAVPNDPTNLGRSLLLLQKVGLIKLKDGVGLLPTSLDIVENPKNLKIVELEAPQLPRSLDDAQIALAVINTTYASQIGLTPAKDGIFVEDKDSPYVNLIVTREDNKDAENVKKFVQAYQSDEVYEAANKVFNGGAVKGWLEHHHHHH”, the “soluble on expression in E. coli” value was “soluble”. In the case of “MAFNDCFSLNYPGNPCPGDLIEVFRPGYQHWALYLGDGYVINIAPVDGIPASFTSAKSVFSSKALVKMQLLKDVVGNDTYRINNKYDETYPPLPVEEIIKRSEFVIGQEVAYNLLVNNCEHFVTLLRYGEGVSEQANRAISTVEFVTAAVGVFSFLGLFPKGQRAKYYLEHHHHHH”, the “soluble on expression in E. coli” value was “soluble”. In the case of “MAFSMLFTGHAECVKFVKKFNLPLLVTGGGGYTKENVARCWTVETGILLDTELPNEISENDYIKYFAPDFSLKIPGGHIENLNTKSYISSIKVQILENLRYIQHAPSVQMQEVPPDFYIPDFDEDEQNPDVRVDQRSRDKQIQRDDEYFDGDNDNDAS”, the “soluble on expression in E. coli” value was “not soluble”. In the case of “MAFVTTAEVCDANQELIRSGQLRALQPIFQIYGRRQIFSGPVVTVKVFEDNGLIRQFIEEKGNGRVLVVDGGGSQRCAILGGNPVVQAQNNGWAGIVVNGCIRDVDEINGCDIGVRALASHPIKASKKGLGEQRVPVNIAGTRICDGEWLYADTDGILVSQIELSV”, the “soluble on expression in E. coli” value was “soluble”.
